T1: recombinant C fragment of tetanus neurotoxin (Clostridium tetani, UniProt P04958 865-1315)
T1 construct: domain: C fragment
T1 sequence: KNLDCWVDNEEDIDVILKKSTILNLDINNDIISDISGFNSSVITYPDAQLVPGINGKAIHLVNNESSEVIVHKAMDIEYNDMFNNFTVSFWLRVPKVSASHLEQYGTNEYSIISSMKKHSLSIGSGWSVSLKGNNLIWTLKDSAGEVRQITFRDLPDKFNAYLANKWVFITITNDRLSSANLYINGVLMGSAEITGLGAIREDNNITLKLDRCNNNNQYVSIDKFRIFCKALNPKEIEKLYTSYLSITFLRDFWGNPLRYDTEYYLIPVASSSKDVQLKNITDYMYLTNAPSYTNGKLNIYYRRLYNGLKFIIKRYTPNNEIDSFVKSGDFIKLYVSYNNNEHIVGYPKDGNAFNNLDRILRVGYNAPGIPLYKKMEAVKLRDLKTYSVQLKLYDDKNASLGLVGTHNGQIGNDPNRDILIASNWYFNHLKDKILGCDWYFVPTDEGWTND

B1: camel VHH αTT2 (anti-tetanus toxoid) (VHH)
VHH: EVQLQASGGGSVQAGGSLRLSCTAANYAFDSKTVGWFRQVPGKEREGVAGISSGGSTTAYSDSVKGRYTVSLENAKNTVYLLIDNLQPEDTAIYYCAGVSGWRGRQWLLLAETYRFWGQGTQVTVSS
B2: camel VHH α-LYS3 (anti-lysozyme) (VHH)
VHH: DVQLQASGGGSVQAGGSLRLSCAASGYTIGPYCMGWFRQAPGKEREGVAAINMGGGITYYADSVKGRFTISQDNAKNTVYLLMNSLEPEDTAIYYCAADSTIYASYYECGHGLSTGGYGYDSWGQGTQVTVSS
notes: also called LYS3 VHH; pHEN4-αLYS3
B3: camel VHH α-LYS2 (anti-lysozyme) (VHH)
VHH: EVQLQASGGGSVQAGQSLRLSCATSGATSSSNCMGWFRQAPGKEREGVAVIDTGRGNTAYADSVQGRLTISLDNAKNTLYLQMNSLKPEDTAMYYCAADTSTWYRGYCGTNPNYFSYWGQGTQVTVSS
notes: also called LYS2 VHH; pHEN4-αLYS2

How the values were obtained:
[1] = target: T1, recombinant C fragment of tetanus …; test: ELISA, bacterial extract
Hen Egg Lysozyme = target: T2, Hen Egg Lysozyme (hen, UniProt P00698 19-147); test: inhibition ELISA, binding competed with free antigen
T2 construct: also called HEL

Protein A = target: T3, Protein A (UniProt P38507 37-477); test: Protein A-Sepharose chromatography
T3 construct: also called Protein A-SEPHAROSE

Binder | binding result [1] | Ki (Hen Egg Lysozyme) [nM] | binding result (Protein A)
B1 | no binding | – | –
B2 | – | ~500 | no binding
B3 | – | ~50 | –
